The target in the data set is Oct1 DNA binding domain (Oct1-DBD) (human (from pBabe-hOct1), UniProt P14859 280-438). In words: EMSA; EMSA: 0.6X buffer D (1X: 20 mM HEPES, 100 mM KCl, 1 mM DTT), 50 ng/ul poly-dI/dC, 1 ug/ul BSA, on ice 15 min, 6% native PAGE in 0.5X TBE; probe 50 nM (1 nM for). Conditions: protein: recombinant; tags: His (pET28a); blunt. On the technique in general: A gel shift assay detects complexes by their altered migration in electrophoresis.
Oct1 DNA binding domain (Oct1-DBD), sequence (P14859 280-438): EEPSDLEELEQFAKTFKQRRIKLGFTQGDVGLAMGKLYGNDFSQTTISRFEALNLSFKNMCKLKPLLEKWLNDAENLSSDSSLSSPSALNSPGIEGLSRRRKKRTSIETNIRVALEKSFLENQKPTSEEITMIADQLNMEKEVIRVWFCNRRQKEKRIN

B1: RHS5_12-Cy5 (dsDNA)
DNA 1: TCGAGAAGCGCTGATTAGCATCTGTCATTA
DNA 2: TAATGACAGATGCTAATCAGCGCTTCTCGA
Consider B1, for which the binding result is listed as “binds”.

B2: RHS6-Cy5 (dsDNA)
DNA 1: CACCATGCAAAGGATGTGCGCGGACTCCCTTCCATTTGCTGGCCTCTTATCTGATA
DNA 2: TATCAGATAAGAGGCCAGCAAATGGAAGGGAGTCCGCGCACATCCTTTGCATGGTG
B2: the binding result is recorded as “binds”.

Source of the values: PMC12069319, “Transcriptional co-regulator OCA-B/Pou2af1 restricts Th2 differentiation”.
